Laboratory results as given in patent publication US20170267766A1 (PIERRE FABRE MEDICAMENT, published 2017).

Assays:
[1] = biological target: T1, human IGF-1R (native, on cells) (human, UniProt P08069 31-1367); test: cell-based or functional assay
[2] = biological target: T1, human IGF-1R (native, on cells); test: FACS titration, MCF-7
Method: The binding properties of a series of anti-IGF-1R antibodies were evaluated by FACS analyses on the human MCF-7 breast adenocarcinoma cell line (ATCC#HTB-22) using increasing antibody concentrations. For that purpose, cells (1×10⁶ cells/ml) were incubated with anti-IGF-1R antibodies for 20 min. at 4° C. in FACS buffer (PBS, 0.1% BSA, 0.01% NaN₃). They were then washed 3 times and incubated with the appropriate secondary antibody coupled with Alexa 488 for 20 additional minutes at 4° C. in the dark before being washed 3 times in FACS buffer. The binding of anti-IGF-1R antibodies was immediately performed on viable cells which were identified using propidium iodide (that stains dead cells). The maximum of signal intensity obtained with each antibody was designed as Bₘₐₓ and expressed in mean of fluorescence intensity (MFI). The EC₅₀ of binding expressed in molarity (M) was calculated using a nonlinear regression analysis (GraphPad Prims 4.0).

[3] = biological target: T2, monkey IGF-1R (on COS-7 cells) (African green monkey); test: cell-based or functional assay
[4] = biological target: T1, human IGF-1R (native, on cells); test: FACS titration, hIGF-1R transfected cells
Method: Briefly, increasing concentrations of chimeric mAbs were incubated with cells for 20 min at 4° C. in FACS buffer (PBS, 0.1% BSA, 0.01% NaN₃). Cells were then washed 3 times and incubated with the appropriate secondary antibody coupled with Alexa 488 before being incubated for 20 additional minutes at 4° C. in the dark and then washed 3 times in FACS buffer. The binding of anti-IGF-1R antibodies was immediately performed on viable cells which were identified using propidium iodide (that stains dead cells). The binding EC₅₀ expressed in molarity (M) was calculated using a nonlinear regression analysis (GraphPad Prims 4.0).

[5] = biological target: T1, human IGF-1R (native, on cells); test: cell-based or functional assay; remark: listed apart in the source
[6] = biological target: T1, human IGF-1R (native, on cells); test: FACS titration, MCF-7; remark: listed apart in the source
Method: (§1) The binding properties of the humanized variants were evaluated by FACS analyses on the human MCF-7 breast adenocarcinoma cell line and the monkey cell line Cos-7 using increasing antibody concentrations. For that purpose, cells (1×10⁶ cells/ml) were incubated with anti-IGF-1R humanized antibodies for 20 min. at 4° C. in FACS buffer (PBS, 0.1% BSA, 0.01% NaN3). They were then washed 3 times and incubated with the appropriate secondary antibody coupled with Alexa 488 for 20 additional minutes at 4° C. in the dark before being washed 3 times in FACS buffer. The binding of anti-IGF-1R antibodies was immediately performed on viable cells which were identified using propidium iodide (that stains dead cells). The EC₅₀ of binding expressed in molarity (M) was calculated using a nonlinear regression analysis (GraphPad Prims 4.0).

[7] = biological target: T2, monkey IGF-1R (on COS-7 cells); test: FACS titration, Cos-7
Method: as §1

| Binder | EC50 [6] [nM] | EC50 [7] [nM] | also measured |
| --- | --- | --- | --- |
| c212A11 (antibody, human IgG1, kappa, V domains shown, group G2; also called chimeric 212A11) VH: QVQLQQSGPELVKPGASVKMSCKASGYTFTSYYIHWVKQRPGQGLEWIGWIWPGDGSTKYNEKFKGKTTLTADKSSSTAYMFLSSLTSEDSAVYFCASPMITPNYAMDYWGQGASVTVSS VL: DIQMTQTTSSLSASLGDRVTISCRASQDINKYLNWYQQQPDGTVKLLIYYTSRLHSGVPSRFSGRGSGTDYSLTISNLEQEDIATYFCQQGSTLPYTFGGGTKLEIKR | – | – | % Internalization (MCF-7, 10 µg/ml, 4 h) [1]: 80%; ΔMFI [1]: 322 MFI; Bmax [2]: 991 MFI; EC50 [2]: 0.67 nM; % internalisation [3]: 75%; ΔMFI [3]: 98 MFI; Bmax [4]: 2510 MFI; EC50 [4]: 0.44 nM; hIGF-1R phosphorylation, % of that induced by IGF-1 (MCF-7, Ab 10 µg/ml) [5]: < 20% |
| hz208F2 H070/L018 (antibody, human IgG1, kappa, V domains shown, humanized 208F2 variant) VH: QVQLVQSGAEVKKPGASVKVSCKASGYTFTSYYMHWVRQAPGQGLEWMGWIWPGDGSTKYAQKFQGRVTMTRDTSTSTVYMELSSLRSEDTAVYYCASPMITPNYAMDYWGQGTLVTVSS VL: DIQMTQSPSSLSASVGDRVTITCRASQDISKYLNWYQQKPGKAPKLLIYYTSRLQSGVPSRFSGRGSGTDYSLTISSLQPEDFATYFCQQGSTLPYTFGGGTKVEIKR | 0.46 | 0.73 | – |
| hz208F2 H037/L018 (antibody, human IgG1, kappa, V domains shown, humanized 208F2 variant) VH: QVQLVQSGAEVKKPGASVKVSCKASGYTFTSYYMHWVRQAPGQGLEWMGWIWPGDGSTKYAQKFQGRVTMTRDKSSSTVYMELSSLRSEDTAVYFCASPMITPNYAMDYWGQGTLVTVSS VL: DIQMTQSPSSLSASVGDRVTITCRASQDISKYLNWYQQKPGKAPKLLIYYTSRLQSGVPSRFSGRGSGTDYSLTISSLQPEDFATYFCQQGSTLPYTFGGGTKVEIKR | 0.49 | 0.74 | – |
| hz208F2 H037/L021 (antibody, human IgG1, kappa, V domains shown, humanized 208F2 variant) VH: QVQLVQSGAEVKKPGASVKVSCKASGYTFTSYYMHWVRQAPGQGLEWMGWIWPGDGSTKYAQKFQGRVTMTRDKSSSTVYMELSSLRSEDTAVYFCASPMITPNYAMDYWGQGTLVTVSS VL: DIQMTQSPSSLSASVGDRVTITCRASQDISKYLNWYQQKPGKAPKLLIYYTSRLHSGVPSRFSGRGSGTDFSLTISSLQPEDFATYFCQQGSTLPYTFGGGTKVEIKR | 0.48 | 0.82 | – |
| hz208F2 H047/L018 (antibody, human IgG1, kappa, V domains shown, humanized 208F2 variant) VH: QVQLVQSGAEVKKPGASVKVSCKASGYTFTSYYIHWVRQAPGQGLEWMGWIWPGDGSTKYAQKFQGRVTMTRDTSSNTVYMELSSLRSEDTAVYYCASPMITPNYAMDYWGQGTLVTVSS VL: DIQMTQSPSSLSASVGDRVTITCRASQDISKYLNWYQQKPGKAPKLLIYYTSRLQSGVPSRFSGRGSGTDYSLTISSLQPEDFATYFCQQGSTLPYTFGGGTKVEIKR | 0.77 | 0.92 | – |
| hz208F2 H049/L018 (antibody, human IgG1, kappa, V domains shown, humanized 208F2 variant) VH: QVQLVQSGAEVKKPGASVKVSCKASGYTFTSYYMHWVRQAPGQGLEWMGWIWPGDGSTKYAQKFQGRVTMTRDKSSSTVYMELSSLRSEDTAVYYCASPMITPNYAMDYWGQGTLVTVSS VL: DIQMTQSPSSLSASVGDRVTITCRASQDISKYLNWYQQKPGKAPKLLIYYTSRLQSGVPSRFSGRGSGTDYSLTISSLQPEDFATYFCQQGSTLPYTFGGGTKVEIKR | 0.49 | 0.69 | – |
| hz208F2 H049/L021 (antibody, human IgG1, kappa, V domains shown, humanized 208F2 variant) VH: QVQLVQSGAEVKKPGASVKVSCKASGYTFTSYYMHWVRQAPGQGLEWMGWIWPGDGSTKYAQKFQGRVTMTRDKSSSTVYMELSSLRSEDTAVYYCASPMITPNYAMDYWGQGTLVTVSS VL: DIQMTQSPSSLSASVGDRVTITCRASQDISKYLNWYQQKPGKAPKLLIYYTSRLHSGVPSRFSGRGSGTDFSLTISSLQPEDFATYFCQQGSTLPYTFGGGTKVEIKR | – | 0.85 | – |
| hz208F2 H051/L018 (antibody, human IgG1, kappa, V domains shown, humanized 208F2 variant) VH: QVQLVQSGAEVKKPGASVKVSCKASGYTFTSYYMHWVRQAPGQGLEWMGWIWPGDGSTKYAQKFQGRVTMTRDTSSNTVYMELSSLRSEDTAVYFCASPMITPNYAMDYWGQGTLVTVSS VL: DIQMTQSPSSLSASVGDRVTITCRASQDISKYLNWYQQKPGKAPKLLIYYTSRLQSGVPSRFSGRGSGTDYSLTISSLQPEDFATYFCQQGSTLPYTFGGGTKVEIKR | 0.57 | 0.72 | – |
| hz208F2 H052/L018 (antibody, human IgG1, kappa, V domains shown, humanized 208F2 variant) VH: QVQLVQSGAEVKKPGASVKVSCKASGYTFTSYYMHWVRQAPGQGLEWMGWIWPGDGSTKYAQKFQGRVTMTRDTSTSTVYMELSSLRSEDTAVYFCASPMITPNYAMDYWGQGTLVTVSS VL: DIQMTQSPSSLSASVGDRVTITCRASQDISKYLNWYQQKPGKAPKLLIYYTSRLQSGVPSRFSGRGSGTDYSLTISSLQPEDFATYFCQQGSTLPYTFGGGTKVEIKR | 0.84 | 0.99 | – |
| hz208F2 H052/L021 (antibody, human IgG1, kappa, V domains shown, humanized 208F2 variant) VH: QVQLVQSGAEVKKPGASVKVSCKASGYTFTSYYMHWVRQAPGQGLEWMGWIWPGDGSTKYAQKFQGRVTMTRDTSTSTVYMELSSLRSEDTAVYFCASPMITPNYAMDYWGQGTLVTVSS VL: DIQMTQSPSSLSASVGDRVTITCRASQDISKYLNWYQQKPGKAPKLLIYYTSRLHSGVPSRFSGRGSGTDFSLTISSLQPEDFATYFCQQGSTLPYTFGGGTKVEIKR | 0.57 | 1.2 | – |
| hz208F2 H057/L018 (antibody, human IgG1, kappa, V domains shown, humanized 208F2 variant) VH: QVQLVQSGAEVKKPGASVKVSCKASGYTFTSYYIHWVRQAPGQGLEWMGWIWPGDGSTKYAQKFQGRVTMTRDKSTNTVYMELSSLRSEDTAVYYCASPMITPNYAMDYWGQGTLVTVSS VL: DIQMTQSPSSLSASVGDRVTITCRASQDISKYLNWYQQKPGKAPKLLIYYTSRLQSGVPSRFSGRGSGTDYSLTISSLQPEDFATYFCQQGSTLPYTFGGGTKVEIKR | 0.58 | 0.83 | – |
| hz208F2 H068/L018 (antibody, human IgG1, kappa, V domains shown, humanized 208F2 variant) VH: QVQLVQSGAEVKKPGASVKVSCKASGYTFTSYYMHWVRQAPGQGLEWMGWIWPGDGSTKYAQKFQGRVTMTRDTSTNTVYMELSSLRSEDTAVYFCASPMITPNYAMDYWGQGTLVTVSS VL: DIQMTQSPSSLSASVGDRVTITCRASQDISKYLNWYQQKPGKAPKLLIYYTSRLQSGVPSRFSGRGSGTDYSLTISSLQPEDFATYFCQQGSTLPYTFGGGTKVEIKR | 1.1 | 1.2 | – |
| hz208F2 H071/L018 (antibody, human IgG1, kappa, V domains shown, humanized 208F2 variant) VH: QVQLVQSGAEVKKPGASVKVSCKASGYTFTSYYMHWVRQAPGQGLEWMGWIWPGDGSTKYAQKFQGRVTMTRDTSTNTVYMELSSLRSEDTAVYYCASPMITPNYAMDYWGQGTLVTVSS VL: DIQMTQSPSSLSASVGDRVTITCRASQDISKYLNWYQQKPGKAPKLLIYYTSRLQSGVPSRFSGRGSGTDYSLTISSLQPEDFATYFCQQGSTLPYTFGGGTKVEIKR | 0.55 | 1.1 | – |
| hz208F2 H076/L018 (antibody, human IgG1, kappa, V domains shown, humanized 208F2 variant) VH: QVQLVQSGAEVKKPGASVKVSCKASGYTFTSYYIHWVRQAPGQGLEWMGWIWPGDGSTKYAQKFQGRVTMTRDTSTSTVYMELSSLRSEDTAVYYCASPMITPNYAMDYWGQGTLVTVSS VL: DIQMTQSPSSLSASVGDRVTITCRASQDISKYLNWYQQKPGKAPKLLIYYTSRLQSGVPSRFSGRGSGTDYSLTISSLQPEDFATYFCQQGSTLPYTFGGGTKVEIKR | 0.65 | 1.1 | – |
| hz208F2 H076/L021 (antibody, human IgG1, kappa, V domains shown, humanized 208F2 variant) VH: QVQLVQSGAEVKKPGASVKVSCKASGYTFTSYYIHWVRQAPGQGLEWMGWIWPGDGSTKYAQKFQGRVTMTRDTSTSTVYMELSSLRSEDTAVYYCASPMITPNYAMDYWGQGTLVTVSS VL: DIQMTQSPSSLSASVGDRVTITCRASQDISKYLNWYQQKPGKAPKLLIYYTSRLHSGVPSRFSGRGSGTDFSLTISSLQPEDFATYFCQQGSTLPYTFGGGTKVEIKR | – | 1.1 | – |
| hz208F2 H077/L018 (antibody, human IgG1, kappa, V domains shown, humanized 208F2 variant) VH: QVQLVQSGAEVKKPGASVKVSCKASGYTFTSYYIHWVRQAPGQGLEWMGWIWPGDGSTKYAQKFQGRVTMTRDTSTSTVYMELSSLRSEDTAVYFCASPMITPNYAMDYWGQGTLVTVSS VL: DIQMTQSPSSLSASVGDRVTITCRASQDISKYLNWYQQKPGKAPKLLIYYTSRLQSGVPSRFSGRGSGTDYSLTISSLQPEDFATYFCQQGSTLPYTFGGGTKVEIKR | 0.77 | 1.1 | – |
